Test results as given in patent US20050164945A1, “Endotheliase-1 ligands” (priority 2003, published 2005).

T1: recombinant endotheliase 1 (human), Q9UL52
T1 chain: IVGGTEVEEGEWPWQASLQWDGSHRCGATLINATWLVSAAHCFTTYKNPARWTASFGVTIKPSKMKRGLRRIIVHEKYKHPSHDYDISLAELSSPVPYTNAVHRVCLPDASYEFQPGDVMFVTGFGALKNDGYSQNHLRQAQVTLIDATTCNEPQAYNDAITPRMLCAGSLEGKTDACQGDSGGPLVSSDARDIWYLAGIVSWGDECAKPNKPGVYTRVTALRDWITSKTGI


Key:
[1] = biological target: T1, recombinant endotheliase 1 (human), …; assay: inhibition of ET1 activity
[2] = biological target: T1, recombinant endotheliase 1 (human), …; assay: cell-based or functional assay

| Ki [1] | ET1 IC50 [2] | Binder |
| --- | --- | --- |
| 100 to 1000 nM | 770 nM | AGVQHCESRDLPCLIKGT (modifications not checked) [DX-1051] |
| 100 to 1000 nM | 47 nM | AGWPTCRGFWPDCGMMGT (modifications not checked) [DX-1135] |
|  | 350 nM | AGNYMCKGYWPDCKMTGT (modifications not checked) [DX-1133] |
